Source: US20180284123A1 (CALIFORNIA INSTITUTE OF TECHNOLOGY, published 2018)
Ends that are not written are not given here.

B1: L2 (peptide)
peptide: EGVPV
modifications: triazole (positions not given here); not fully specified (bridges); also: macrocycle closed by 1,4-triazole, propargylglycine click handle, other ring residues not given here
notes: also called EGVPV
B2: L7a (peptide)
peptide: VQVPY
modifications: triazole (positions not given here); not fully specified (bridges); also: 1,4-triazole macrocycle, ring places not given here, propargylglycine click handle, place not given here, biotinylated (biotin NovaTag resin), site not given here
notes: also called VQVPY f1
B3: L7b (peptide)
peptide: VQVPY
modifications: triazole (positions not given here); not fully specified (bridges); also: 1,4-triazole macrocycle, ring places not given here, propargylglycine click handle, place not given here, biotinylated (biotin NovaTag resin), site not given here
notes: also called VQVPY f2
B4: L5b (peptide)
peptide: VEVYP
modifications: triazole (positions not given here); not fully specified (bridges); also: 1,4-triazole macrocycle, ring places not given here, propargylglycine click handle, place not given here, biotinylated (biotin NovaTag resin), site not given here
notes: also called VEVYP f2
B5: L3a (peptide)
peptide: GEVVP
modifications: triazole (positions not given here); not fully specified (bridges); also: 1,4-triazole macrocycle, ring places not given here, propargylglycine click handle, place not given here, biotinylated (biotin NovaTag resin), site not given here
notes: also called GEVVP f1
B6: L8 (peptide)
peptide: TDNFY
modifications: triazole (positions not given here); not fully specified (bridges); also: macrocycle closed by 1,4-triazole, propargylglycine click handle, other ring residues not given here
notes: also called TDNFY
B7: L6 (peptide)
peptide: VTVPY
modifications: triazole (positions not given here); not fully specified (bridges); also: macrocycle closed by 1,4-triazole, propargylglycine click handle, other ring residues not given here
notes: also called VTVPY
B8: L4a (peptide)
peptide: VEVPY
modifications: triazole (positions not given here); not fully specified (bridges); also: 1,4-triazole macrocycle, ring places not given here, propargylglycine click handle, place not given here, biotinylated (biotin NovaTag resin), site not given here
notes: also called VEVPY f1
B9: L3b (peptide)
peptide: GEVVP
modifications: triazole (positions not given here); not fully specified (bridges); also: 1,4-triazole macrocycle, ring places not given here, propargylglycine click handle, place not given here, biotinylated (biotin NovaTag resin), site not given here
notes: also called GEVVP f2
B10: L1a (peptide)
peptide: HGIVG
modifications: triazole (positions not given here); not fully specified (bridges); also: 1,4-triazole macrocycle, ring places not given here, propargylglycine click handle, place not given here, biotinylated (biotin NovaTag resin), site not given here
notes: It is one of two HPLC fractions of the same mass; also called HGIVG f1
B11: L1b (peptide)
peptide: HGIVG
modifications: triazole (positions not given here); not fully specified (bridges); also: 1,4-triazole macrocycle, ring places not given here, propargylglycine click handle, place not given here, biotinylated (biotin NovaTag resin), site not given here
notes: Second HPLC fraction; also called HGIVG f2
B12: L4b (peptide)
peptide: VEVPY
modifications: triazole (positions not given here); not fully specified (bridges); also: 1,4-triazole macrocycle, ring places not given here, propargylglycine click handle, place not given here, biotinylated (biotin NovaTag resin), site not given here
notes: also called VEVPY f2
B13: L5a (peptide)
peptide: VEVYP
modifications: triazole (positions not given here); not fully specified (bridges); also: 1,4-triazole macrocycle, ring places not given here, propargylglycine click handle, place not given here, biotinylated (biotin NovaTag resin), site not given here
notes: also called VEVYP f1

These binders were tested against T1, His6-tagged human KRas Isoform 4B (residues 1-169) (human, UniProt P01116-2 1-169) (assay: cell-based or functional assay).

Binder	IC50 of the intrinsic GTPase activity of KRas (GTPase-Glo, 10 µM KRas, four-hour incubation) [µM]	IC50 of the intrinsic GTPase enzymatic activity of KRas [µM]
B1	24	~20

These binders were tested against T1, His6-tagged human KRas Isoform 4B … (assay: multi-well sandwich ELISA; ligand on Neutravidin plate, KRas 0-300 µM).
Experimental: (§1) A 96-well Pierce Neutravidin Plate was washed with binding buffer (3×5 minutes at RT) before loading plate with a 1 μM solution of either blank (biotin-PEG₅-NHAc) (singly) or biotinylated PCC ligand (in triplicate). The plate incubated for two hours before washing with binding buffer (3×5 minutes). Blocking buffer was added to each well and the plate blocked for one hour before undergoing washing with binding buffer (3×5 minutes). Each well was loaded with either binding buffer or KRas solution (0→300 μM), and the plate was incubated for 30 minutes. Plate washing with binding buffer (3×5 minutes) preceded incubating the plate with a (1000:1) dilution of 1° antibody (ab) rabbit anti-Ras (CST #3965) in ab buffer for thirty minutes. The plate was washed with binding buffer (3×5 minutes), loaded with a (2000:1) dilution of 2° ab goat anti-rabbit, HRP-linked ab (CST #7074) in ab buffer, and incubated for an additional thirty minutes. The plate was rinsed with binding buffer (3×5 minutes), TBS (1×5 minutes), loaded with a (1:1) mixture of TMB Peroxidase Solution and TMB Peroxidase Solution B, and developed with occasional agitation for 8-12 minutes. After quenching the enzymatic reaction with 1M H₂SO_{4(aq)} (100 μL) the plate was read at λ=450 nm within ten minutes. The data was double background corrected using the ab only absorbance and the dummy ligand absorbance, plotted using Prism GraphPad 7 (Sigmoidal 4PL mode with the Hill coefficient set=1), and an EC₅₀ value was calculated.

Binder	EC50 [µM]
B2	25.8
B3	44.2
B4	6.87
B5	7.78
B6	25.6

What follows are binders tested against T1, His6-tagged human KRas Isoform 4B … (assay: B-RAP immunofluorescence, 10 µM KRas well, pixel-by-pixel along the barcode lane).

Binder	Avg F635 (full centroid)	Avg F635 (full lane)	avg F635 (left part centroid)	avg F635 (middle part centroid)	avg F635 (right part centroid)
B7	17800	16000	15600	19400	18500

What follows are binders tested against T1, His6-tagged human KRas Isoform 4B … (assay: barcoded rapid assay microchip, fitted curves of FIG. 6B (Hill coefficient 1), triplicate).

Binder	EC50 [µM]
B1	8.19
B8	19.6
B7	16
B2	31.5
B3	30.3
B9	19.4
B10	16.2
B5	53.3
B6	8.44
B11	12.2
B12	32.7

What follows are binders tested against T1, His6-tagged human KRas Isoform 4B … (assay: B-RAP surface immunofluorescence assay; ligand on barcode via SAC-DNA, KRas titrated 0-400 µM).
Experimental: After extraction the data is background corrected. The background signal arises from (a) non-specific binding of the primary and secondary antibodies (independent of [KRas]), but can vary across different barcode stripes), and (b) non-specific binding of KRas protein ([KRas] dependent). Background (a) was assessed by measuring the average signal in the null protein well for each stripe. Background (b) was assessed by measuring the average fluorescence for the dummy ligand (Biotin* probe) that was in each well. The background subtracted data was then graphed in Graphpad Prism 7 and fitted to a sigmoidal curve (Hill coefficient=1).
A pre-fabricated PDMS template was aligned onto the DNA barcode microchip, and the microchip was taped into a 10 cm petri dish. The wells on the platform were wet with 50 μL PBST before filling with blocking buffer and placing into a 37° C. incubator for 1 hr. Concurrently, 40 μL 1% BSA in PBS solutions containing 750 nM of a SAC-DNA conjugate and 3.75 μM of one biotinylated PCC ligand or biotin-A₂₀-Cy3 blank were prepared for each SAC-DNA conjugate. The biotinylated ligands were allowed to complex with the SAC protein for one hour before pooling the SAC-DNA-ligand solutions (final [SAC-DNA-ligand conjugates]=50 nM). The blocking buffer was aspirated and each well was loaded with the SAC-DNA-ligand conjugates cocktail for hybridization with the DNA barcode at 37° C. for one hour. The wells were washed with PBST (3×) before loading serially diluted solutions of KRas protein in protein buffer (0 to 400 μM). After shaking at RT for one hour, the wells were rinsed with PBST (5×), making sure to pipet up/down with the first addition of PB ST. A (100:1) dilution of CST rabbit anti-Ras Ab (#39655) in 1° ab buffer was added to each well before shaking at RT for one hour. After rinsing the wells with PBST (3×), the wells were loaded with a (200:1) dilution of Abcam goat anti-rabbit-Alexafluor 647 linked ab (ab150079) in 2° ab buffer before shaking at RT for one hour. A final rinse of the wells with PBST (3×) proceeded peeling off the PDMS slab from the barcode microchip and dipping the barcode into the following solutions: PBS, (1:1) PBS: MQ H₂O, MQ H₂O (2×). After being spun dry, the barcode was read on the Genepix (635 nm, PMT 600, PWR 40% (60 W); 532 nm, PMT 450, PWR 15% (23 W)).

Binder	EC50 [µM]
B1	3.31
B7	18.9
B13	5.23
B10	0.97
B4	7.8
B6	2.8
B11	1.33

Each binder was assayed against T1, His6-tagged human KRas Isoform 4B … (assay: multi-well sandwich ELISA; ligand on Neutravidin plate, KRas 0-300 µM; footnote b: poorly resolved).
Experimental: as §1

Binder	EC50 [µM]
B1	33.2
B7	159
B13	3.72
B10	1.65
B11	0.76
